Assay results published in patent US20100254972A1.

Columns and labels:
[1] = molecular target: IL-1R1; experiment: Receptor Binding Assay, inhibition of IL-1 binding to IL-RI
[2] = molecular target: IL-RI-Fc (a fusion of IL-1RI and Fc); experiment: phage-displayed dAb; no trypsin, 1 hr, room temp; biopanning on 1 nM IL-1RI-Fc
[3] = molecular target: IL-RI-Fc (a fusion of IL-1RI and Fc); experiment: phage-displayed dAb; no trypsin, overnight, 37 C; biopanning on 1 nM IL-1RI-Fc
[4] = molecular target: IL-RI-Fc (a fusion of IL-1RI and Fc); experiment: phage-displayed dAb; no trypsin, overnight, room temp; biopanning on 1 nM IL-1RI-Fc
[5] = molecular target: IL-RI-Fc (a fusion of IL-1RI and Fc); experiment: phage-displayed dAb; trypsin 10 µg/ml, 1 hr, room temp; biopanning on 1 nM IL-1RI-Fc
[6] = molecular target: IL-RI-Fc (a fusion of IL-1RI and Fc); experiment: phage-displayed dAb; trypsin 10 µg/ml, overnight, 37 C; biopanning on 1 nM IL-1RI-Fc
[7] = molecular target: IL-RI-Fc (a fusion of IL-1RI and Fc); experiment: phage-displayed dAb; trypsin 100 µg/ml, 1 hr, room temp; biopanning on 1 nM IL-1RI-Fc
[8] = molecular target: IL-RI-Fc (a fusion of IL-1RI and Fc); experiment: phage-displayed dAb; trypsin 100 µg/ml, overnight, 37 C; biopanning on 1 nM IL-1RI-Fc
[9] = molecular target: IL-RI-Fc (a fusion of IL-1RI and Fc); experiment: phage-displayed dAb; trypsin 10 µg/ml, overnight, room temp; biopanning on 1 nM IL-1RI-Fc
[10] = molecular target: IL-RI-Fc (a fusion of IL-1RI and Fc); experiment: phage-displayed dAb; trypsin 100 µg/ml, overnight, room temp; biopanning on 1 nM IL-1RI-Fc

Chain of IL-RI-Fc (a fusion of IL-1RI and Fc) (P14778 whole entry, the tested form may be a part): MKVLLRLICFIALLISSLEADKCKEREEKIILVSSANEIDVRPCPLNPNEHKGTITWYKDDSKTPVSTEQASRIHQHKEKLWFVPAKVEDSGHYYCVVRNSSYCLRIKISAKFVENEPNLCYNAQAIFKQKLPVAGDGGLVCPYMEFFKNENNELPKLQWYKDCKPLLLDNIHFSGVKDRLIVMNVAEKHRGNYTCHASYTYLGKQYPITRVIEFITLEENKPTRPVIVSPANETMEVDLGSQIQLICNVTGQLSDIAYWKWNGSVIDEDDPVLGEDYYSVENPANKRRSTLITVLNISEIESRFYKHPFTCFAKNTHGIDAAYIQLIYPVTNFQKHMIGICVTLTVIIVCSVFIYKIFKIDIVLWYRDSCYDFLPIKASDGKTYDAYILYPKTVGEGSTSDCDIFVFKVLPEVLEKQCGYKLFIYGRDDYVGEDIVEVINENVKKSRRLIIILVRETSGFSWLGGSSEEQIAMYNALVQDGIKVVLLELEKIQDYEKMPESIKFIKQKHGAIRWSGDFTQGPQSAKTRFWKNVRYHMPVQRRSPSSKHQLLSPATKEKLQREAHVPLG
Chain of IL-1R1 (P14778 whole entry, the tested form may be a part): as above

- IC50 [1]: 280 pM
- titre of phage after biopanning [2]: 6.6e+09
- titre of phage after biopanning [3]: 7.2e+09
- titre of phage after biopanning [4]: 7.8e+09
- titre of phage after biopanning [5]: 7.2e+09
- titre of phage after biopanning [6]: 3.84e+08
- titre of phage after biopanning [7]: 1.8e+10
- titre of phage after biopanning [8]: 2.04e+06
- titre of phage after biopanning [9]: 7.2e+09
- titre of phage after biopanning [10]: 2.16e+09
B1: DOM4-130-54 (protein)
VL: DIQMTQSPSSLSASVGDRVTITCRASQDIYLNLDWYQQKPGKAPKLLINFGSELQSGVPSRFSGSGYGTDFTLTISSLQPEDFATYYCQPSFYFPYTFGQGTKVEIKR
